Measurements: US20170349647A1

What was measured:
[1] = molecular target: recombinant nucleoprotein derived from influenza viruses subtype A H3N2 (Sino Biological, 40208-[change]) (influenza virus type A H3N2)
[2] = molecular target: recombinant nucleoprotein derived from influenza viruses subtype A H1N1 (Sino Biological, 11675-[change]) (influenza virus type A H1N1)
Sequence of recombinant nucleoprotein derived from influenza viruses subtype A H1N1 (Sino Biological, 11675-[change]) (influenza virus type A H1N1) (P03466 whole entry): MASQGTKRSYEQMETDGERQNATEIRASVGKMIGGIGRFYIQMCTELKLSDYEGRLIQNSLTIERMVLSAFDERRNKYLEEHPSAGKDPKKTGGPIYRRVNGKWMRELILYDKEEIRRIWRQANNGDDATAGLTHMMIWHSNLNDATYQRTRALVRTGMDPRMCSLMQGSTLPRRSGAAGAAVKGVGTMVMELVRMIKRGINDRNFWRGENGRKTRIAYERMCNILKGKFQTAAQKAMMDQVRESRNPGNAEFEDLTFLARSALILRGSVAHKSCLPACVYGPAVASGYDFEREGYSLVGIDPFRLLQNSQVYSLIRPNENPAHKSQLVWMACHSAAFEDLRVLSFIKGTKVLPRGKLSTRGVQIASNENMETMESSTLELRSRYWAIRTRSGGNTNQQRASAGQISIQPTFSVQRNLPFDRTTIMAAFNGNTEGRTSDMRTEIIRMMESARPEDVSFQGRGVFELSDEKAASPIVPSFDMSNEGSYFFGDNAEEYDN

B1: VHH antibody consisting of the amino acid sequence represented by SEQ ID NO: 08 (VHH)
VHH: QVQLVESGGGLVQAGGSLRLSCAASRTIFNPNVMGWYRQAPGKQRELVADISLSGSTNYADSVKGRFTISRDNAKNTMYLQMNSLKPEDTAVYYCNTNAISGAPGRYWGQGTQVTVSS
- EC50 (read off the curve) [1]: 0.03 µg/mL
- EC50 (read off the curve) [2]: 0.004 µg/mL
